Tests used:
Assay in all cases: co-IP
[1] = target: μ2-eGFP (rat AP2M1 with internal HA tag and eGFP) (rat) (UniProt P84092)
[2] = target: σ2-eGFP (AP2S1 with C-terminal eGFP) (UniProt P62744)
[3] = target: α-eGFP (hybrid mouse α-adaptin with eGFP inserted into the hinge region) (mouse) (UniProt P17427)

Sequence of UniProt P62744 (P62744 whole entry): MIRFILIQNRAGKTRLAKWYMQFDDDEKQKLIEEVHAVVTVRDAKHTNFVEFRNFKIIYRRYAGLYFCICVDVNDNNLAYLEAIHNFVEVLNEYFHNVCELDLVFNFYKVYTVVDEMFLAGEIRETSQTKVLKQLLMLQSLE
Sequence of UniProt P84092 (P84092 whole entry): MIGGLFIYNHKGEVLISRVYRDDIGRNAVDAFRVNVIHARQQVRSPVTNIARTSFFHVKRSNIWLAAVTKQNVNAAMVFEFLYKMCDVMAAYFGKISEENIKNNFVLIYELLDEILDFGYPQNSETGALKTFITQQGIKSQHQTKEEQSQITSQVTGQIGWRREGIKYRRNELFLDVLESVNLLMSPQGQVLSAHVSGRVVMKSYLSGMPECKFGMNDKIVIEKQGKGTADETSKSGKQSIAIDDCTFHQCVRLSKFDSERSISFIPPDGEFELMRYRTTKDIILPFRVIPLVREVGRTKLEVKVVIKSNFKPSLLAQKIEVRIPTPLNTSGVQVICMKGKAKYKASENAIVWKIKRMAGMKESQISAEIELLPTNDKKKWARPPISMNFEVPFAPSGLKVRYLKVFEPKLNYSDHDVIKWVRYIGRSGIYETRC

percent of the endogenous subunit pulled down [1] [%]	percent of the endogenous subunit pulled down [2] [%]	percent of the endogenous subunit pulled down [3] [%]	Substance
94.1	98.7		endogenous α subunit of AP2 (α-adaptin) (from UniProt O94973 1-939) (natural protein)
	79.5	99.3	endogenous μ2 subunit of AP2 (from UniProt Q96CW1 1-435) (natural protein)
68		78.8	endogenous σ2 subunit of AP2 (from UniProt P53680 1-142) (natural protein)

From paper PMC7495412
